We go through 4 molecules from doi:10.1101/2020.10.21.349050.

Read-outs that look alike come from different tables or passages of the source.

Holding throughout (test): EMSA
The target of series [1] is T1, GST-Swi6 (Schizosaccharomyces pombe, UniProt P40381 1-328).
T1 sequence: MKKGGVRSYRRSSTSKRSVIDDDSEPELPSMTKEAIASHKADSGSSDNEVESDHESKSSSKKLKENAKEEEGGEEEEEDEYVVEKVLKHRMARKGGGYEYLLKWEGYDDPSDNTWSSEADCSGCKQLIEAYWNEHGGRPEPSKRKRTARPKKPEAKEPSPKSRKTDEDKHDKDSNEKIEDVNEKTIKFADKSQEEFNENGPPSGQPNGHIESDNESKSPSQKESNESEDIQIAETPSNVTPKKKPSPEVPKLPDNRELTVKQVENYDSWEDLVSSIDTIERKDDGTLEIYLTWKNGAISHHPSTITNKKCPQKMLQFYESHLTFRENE

Series [2] deals with T1, GST-Swi6. This is another data set of the same source.
Series [3] concerns the target T1, GST-Swi6. This is another data set of the same source.
For series [4], the target named is T1, GST-Swi6. The source holds these as a separate data set.
Series [5] has as its target T2, GST-Swi6 3K->3A (Schizosaccharomyces pombe, UniProt P40381 1-328, K242A;K243A;K244A).
T2 sequence: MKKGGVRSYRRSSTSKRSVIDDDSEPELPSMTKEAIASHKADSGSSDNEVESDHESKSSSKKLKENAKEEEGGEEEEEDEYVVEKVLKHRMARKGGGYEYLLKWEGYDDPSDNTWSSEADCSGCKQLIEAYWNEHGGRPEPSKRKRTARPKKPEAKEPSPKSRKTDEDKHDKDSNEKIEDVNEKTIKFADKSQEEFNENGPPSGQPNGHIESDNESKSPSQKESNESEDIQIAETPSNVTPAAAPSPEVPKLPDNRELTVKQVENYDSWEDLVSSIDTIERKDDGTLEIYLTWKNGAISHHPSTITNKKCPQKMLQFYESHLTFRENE

In series [6] the target is T1, GST-Swi6. This is another data set of the same source.

For the molecule UACCGCUUCUCCUUAAUCCA (ssRNA) [D-Rev RNA], the binding result in series [1] was “no binding”.
By Kd is commonly meant the free concentration of one partner at which half of the binding sites on the other are occupied at equilibrium, for simple one-to-one binding. A higher Kd goes with lower affinity. Turning to UGGAUUAAGGAGAAGCGGUA (ssRNA) [D-For RNA], the Kd in series [2] amounted to 2450 nM; in series [3], 1790 nM.
In turn, ACAAGUGAUAAGAGUAGGUGU (ssRNA) [E-For RNA] returned a Kd in series [4] of 2150 ± 100 nM.

B1: D-For RNA-DNA hybrid (DNA:RNA)
RNA: UGGAUUAAGGAGAAGCGGUA
DNA: TACCGCTTCTCCTTAATCCA
As to B1, the binding result in series [5] is “no binding”. The Kd in series [2] stood at 80 nM; in series [6], 90 nM; in series [3], 730 nM.
